PMC8838988

Molecular target: PiCDPK1, full-length 6X N-terminal His-fusion protein (Petunia inflata)
Sequence (main, as listed by the source): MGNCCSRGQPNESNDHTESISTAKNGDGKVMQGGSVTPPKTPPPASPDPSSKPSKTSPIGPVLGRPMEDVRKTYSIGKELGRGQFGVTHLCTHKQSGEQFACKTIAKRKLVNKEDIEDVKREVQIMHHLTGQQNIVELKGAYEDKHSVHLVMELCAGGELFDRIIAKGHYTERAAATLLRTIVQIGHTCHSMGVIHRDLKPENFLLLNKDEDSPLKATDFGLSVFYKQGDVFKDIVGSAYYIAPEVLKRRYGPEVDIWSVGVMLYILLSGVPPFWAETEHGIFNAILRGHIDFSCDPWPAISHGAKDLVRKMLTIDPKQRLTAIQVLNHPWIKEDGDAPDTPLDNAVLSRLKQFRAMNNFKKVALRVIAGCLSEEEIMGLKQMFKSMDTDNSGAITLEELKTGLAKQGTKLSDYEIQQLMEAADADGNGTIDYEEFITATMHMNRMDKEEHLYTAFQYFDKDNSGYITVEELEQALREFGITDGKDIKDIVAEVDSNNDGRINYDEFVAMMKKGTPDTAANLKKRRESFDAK

**Q.** What does the source list for “PiRhoGDI1, full-length 6X N-terminal His-fusion protein (natural protein)”?
**A.** Km of the phosphorylation of PiRhoGDI1 by PiCDPK1 (Michaelis-Menten conditions): 2.2 µM; Vmax of the phosphorylation of PiRhoGDI1 by PiCDPK1 (Michaelis-Menten conditions): 1920 pmol/min/mg
